B1: CAVIN3, Q969G5 (peptide)
chain: EALLQMESVA
B2: HCN2, Q9UL51 (peptide)
chain: SARSRLSSNL
B3: TRAF2, Q12933 (peptide)
chain: IKAIVDLTGL
B4: AQP6, Q13520 (peptide)
chain: GSGAVEMESV
B5: GOT1L1, Q8NHS2 (peptide)
chain: EKKTLIGIKL

molecular target: T1, DFNB31_2, Q9P202; assay: holdup assay; design: key: below the threshold = too weak to quantify, mostly under pKd 3.1 to 4; conditions: plain residues with an end cap or a label only (N-terminal biotin on a linker: ado-ado)
T1 sequence (Q9P202 274-371, limits assumed, looked up): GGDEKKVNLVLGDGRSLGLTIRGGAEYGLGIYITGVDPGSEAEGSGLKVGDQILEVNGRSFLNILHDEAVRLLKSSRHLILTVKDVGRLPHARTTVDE

Binder | pKd
B1 | below the threshold
B2 | below the threshold
B3 | below the threshold
B4 | below the threshold
B5 | below the threshold

molecular target: T2, MPDZ_5, O75970; assay: holdup assay; design: key: below the threshold = too weak to quantify, mostly under pKd 3.1 to 4; conditions: plain residues with an end cap or a label only (N-terminal biotin on a linker: ado-ado)
T2 sequence (O75970 695-796, limits assumed, looked up): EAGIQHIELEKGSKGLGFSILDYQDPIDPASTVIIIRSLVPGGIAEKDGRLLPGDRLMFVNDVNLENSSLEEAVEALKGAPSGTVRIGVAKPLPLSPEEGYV

Binder | pKd
B1 | below the threshold
B2 | below the threshold
B3 | below the threshold
B4 | below the threshold
B5 | below the threshold

molecular target: T3, LIN7A, O14910; assay: holdup assay; design: key: below the threshold = too weak to quantify, mostly under pKd 3.1 to 4; conditions: plain residues with an end cap or a label only (N-terminal biotin on a linker: ado-ado)
T3 sequence (O14910 103-200, limits assumed, looked up): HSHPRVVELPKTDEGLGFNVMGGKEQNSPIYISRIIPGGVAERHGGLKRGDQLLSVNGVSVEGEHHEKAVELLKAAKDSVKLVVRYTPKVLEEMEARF

Binder | pKd
B1 | below the threshold
B2 | below the threshold
B3 | below the threshold
B4 | below the threshold
B5 | below the threshold

molecular target: T4, CARD11, Q9BXL7; assay: holdup assay; design: key: below the threshold = too weak to quantify, mostly under pKd 3.1 to 4; conditions: plain residues with an end cap or a label only (N-terminal biotin on a linker: ado-ado)
T4 sequence (Q9BXL7 662-765, limits assumed, looked up): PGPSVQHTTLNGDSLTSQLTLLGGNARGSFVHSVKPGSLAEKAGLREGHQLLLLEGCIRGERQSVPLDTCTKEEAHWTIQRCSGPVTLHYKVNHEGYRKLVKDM

Binder | pKd
B1 | below the threshold
B2 | below the threshold
B3 | below the threshold
B4 | below the threshold
B5 | below the threshold

molecular target: GRIP2_5, Q9C0E4; assay: holdup assay; design: key: below the threshold = too weak to quantify, mostly under pKd 3.1 to 4; conditions: plain residues with an end cap or a label only (N-terminal biotin on a linker: ado-ado)
Sequence (Q9C0E4 544-642): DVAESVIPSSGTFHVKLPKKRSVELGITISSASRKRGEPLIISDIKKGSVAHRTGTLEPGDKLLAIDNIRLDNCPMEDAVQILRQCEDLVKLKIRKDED

Binder | pKd
B1 | below the threshold
B2 | below the threshold
B3 | below the threshold
B4 | below the threshold
B5 | below the threshold

molecular target: T5, SNTA1, Q13424; assay: holdup assay; design: key: below the threshold = too weak to quantify, mostly under pKd 3.1 to 4; conditions: plain residues with an end cap or a label only (N-terminal biotin on a linker: ado-ado)
T5 sequence (Q13424 82-180, limits assumed, looked up): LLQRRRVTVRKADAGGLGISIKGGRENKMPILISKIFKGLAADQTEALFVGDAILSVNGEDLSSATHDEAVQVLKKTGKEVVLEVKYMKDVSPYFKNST

Binder | pKd
B1 | below the threshold
B2 | below the threshold
B3 | below the threshold
B4 | below the threshold
B5 | below the threshold

molecular target: MAGI2_2, Q86UL8; assay: holdup assay; design: key: below the threshold = too weak to quantify, mostly under pKd 3.1 to 4; conditions: plain residues with an end cap or a label only (N-terminal biotin on a linker: ado-ado)
Sequence (Q86UL8 410-522): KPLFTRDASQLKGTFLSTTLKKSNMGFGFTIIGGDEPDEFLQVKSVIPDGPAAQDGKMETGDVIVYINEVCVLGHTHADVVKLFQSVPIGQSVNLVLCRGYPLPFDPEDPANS

Binder | pKd
B1 | below the threshold
B2 | 3.71
B3 | below the threshold
B4 | below the threshold
B5 | 3.52

molecular target: DLG1_1, Q12959; assay: holdup assay; design: key: below the threshold = too weak to quantify, mostly under pKd 3.1 to 4; conditions: plain residues with an end cap or a label only (N-terminal biotin on a linker: ado-ado)

Binder | pKd
B1 | below the threshold
B2 | below the threshold
B3 | below the threshold
B4 | below the threshold
B5 | below the threshold

molecular target: T6, NHERF3_4, Q5T2W1; assay: holdup assay; design: key: below the threshold = too weak to quantify, mostly under pKd 3.1 to 4; conditions: plain residues with an end cap or a label only (N-terminal biotin on a linker: ado-ado)
T6 sequence (Q5T2W1 373-468, limits assumed, looked up): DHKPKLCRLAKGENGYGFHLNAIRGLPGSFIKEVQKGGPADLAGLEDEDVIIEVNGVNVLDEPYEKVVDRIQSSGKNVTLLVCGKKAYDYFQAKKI

Binder | pKd
B1 | below the threshold
B2 | below the threshold
B3 | below the threshold
B4 | below the threshold
B5 | 4.74

molecular target: T7, PDZD2_2, O15018; assay: holdup assay; design: key: below the threshold = too weak to quantify, mostly under pKd 3.1 to 4; conditions: plain residues with an end cap or a label only (N-terminal biotin on a linker: ado-ado)
T7 sequence (O15018 329-429, limits assumed, looked up): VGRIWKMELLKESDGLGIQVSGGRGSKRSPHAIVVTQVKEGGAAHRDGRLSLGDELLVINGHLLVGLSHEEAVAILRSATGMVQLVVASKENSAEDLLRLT

Binder | pKd
B1 | below the threshold
B2 | 3.74
B3 | below the threshold
B4 | 3.7
B5 | below the threshold

molecular target: FRMPD2_3, Q68DX3; assay: holdup assay; design: key: below the threshold = too weak to quantify, mostly under pKd 3.1 to 4; conditions: plain residues with an end cap or a label only (N-terminal biotin on a linker: ado-ado)
Sequence (Q68DX3 1073-1166): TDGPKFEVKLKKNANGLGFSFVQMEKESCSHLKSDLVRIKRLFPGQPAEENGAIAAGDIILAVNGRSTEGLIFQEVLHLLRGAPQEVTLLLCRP

Binder | pKd
B1 | below the threshold
B2 | below the threshold
B3 | below the threshold
B4 | below the threshold
B5 | below the threshold

molecular target: GIPC2, Q8TF65; assay: holdup assay; design: key: below the threshold = too weak to quantify, mostly under pKd 3.1 to 4; conditions: plain residues with an end cap or a label only (N-terminal biotin on a linker: ado-ado)
Sequence (Q8TF65 112-203): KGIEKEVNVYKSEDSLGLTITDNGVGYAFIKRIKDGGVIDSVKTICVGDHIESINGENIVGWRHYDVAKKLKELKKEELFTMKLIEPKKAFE

Binder | pKd
B1 | 3.97
B2 | below the threshold
B3 | below the threshold
B4 | below the threshold
B5 | below the threshold

molecular target: DLG1_2, Q12959; assay: holdup assay; design: key: below the threshold = too weak to quantify, mostly under pKd 3.1 to 4; conditions: plain residues with an end cap or a label only (N-terminal biotin on a linker: ado-ado)

Binder | pKd
B1 | below the threshold
B2 | below the threshold
B3 | below the threshold
B4 | below the threshold
B5 | below the threshold

molecular target: IL16_3, Q14005; assay: holdup assay; design: key: below the threshold = too weak to quantify, mostly under pKd 3.1 to 4; conditions: plain residues with an end cap or a label only (N-terminal biotin on a linker: ado-ado)
Sequence (Q14005 1107-1207): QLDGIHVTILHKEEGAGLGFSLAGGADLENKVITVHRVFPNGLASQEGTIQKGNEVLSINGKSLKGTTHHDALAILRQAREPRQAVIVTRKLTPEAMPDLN

Binder | pKd
B1 | below the threshold
B2 | below the threshold
B3 | below the threshold
B4 | below the threshold
B5 | below the threshold

molecular target: GRASP, Q7Z6J2; assay: holdup assay; design: key: below the threshold = too weak to quantify, mostly under pKd 3.1 to 4; conditions: plain residues with an end cap or a label only (N-terminal biotin on a linker: ado-ado)
Sequence (Q7Z6J2 96-193): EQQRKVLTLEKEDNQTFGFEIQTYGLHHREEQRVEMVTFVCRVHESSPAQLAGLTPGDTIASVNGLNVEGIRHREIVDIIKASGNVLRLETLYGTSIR

Binder | pKd
B1 | below the threshold
B2 | 4
B3 | 3.94
B4 | below the threshold
B5 | below the threshold

molecular target: GRIP2_6, Q9C0E4; assay: holdup assay; design: key: below the threshold = too weak to quantify, mostly under pKd 3.1 to 4; conditions: plain residues with an end cap or a label only (N-terminal biotin on a linker: ado-ado)
Sequence (Q9C0E4 648-740): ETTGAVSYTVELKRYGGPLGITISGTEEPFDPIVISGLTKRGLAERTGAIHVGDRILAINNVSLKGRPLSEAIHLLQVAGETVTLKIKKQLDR

Binder | pKd
B1 | below the threshold
B2 | below the threshold
B3 | below the threshold
B4 | below the threshold
B5 | below the threshold

molecular target: T8, SIPA1L2, Q9P2F8; assay: holdup assay; design: key: below the threshold = too weak to quantify, mostly under pKd 3.1 to 4; conditions: plain residues with an end cap or a label only (N-terminal biotin on a linker: ado-ado)
T8 sequence (Q9P2F8 945-1036, limits assumed, looked up): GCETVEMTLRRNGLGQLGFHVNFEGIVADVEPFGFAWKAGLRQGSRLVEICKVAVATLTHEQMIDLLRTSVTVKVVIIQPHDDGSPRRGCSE

Binder | pKd
B1 | below the threshold
B2 | below the threshold
B3 | below the threshold
B4 | below the threshold
B5 | below the threshold

molecular target: T9, NHERF3_1, Q5T2W1; assay: holdup assay; design: key: below the threshold = too weak to quantify, mostly under pKd 3.1 to 4; conditions: plain residues with an end cap or a label only (N-terminal biotin on a linker: ado-ado)
T9 sequence (Q5T2W1 4-100, limits assumed, looked up): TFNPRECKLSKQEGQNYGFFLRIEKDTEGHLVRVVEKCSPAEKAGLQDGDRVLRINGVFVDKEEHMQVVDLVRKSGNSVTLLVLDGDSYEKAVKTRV

Binder | pKd
B1 | below the threshold
B2 | 4.72
B3 | 4.56
B4 | below the threshold
B5 | 4.78

molecular target: T10, DFNB31_3, Q9P202; assay: holdup assay; design: key: below the threshold = too weak to quantify, mostly under pKd 3.1 to 4; conditions: plain residues with an end cap or a label only (N-terminal biotin on a linker: ado-ado)
T10 sequence (Q9P202 811-907, limits assumed, looked up): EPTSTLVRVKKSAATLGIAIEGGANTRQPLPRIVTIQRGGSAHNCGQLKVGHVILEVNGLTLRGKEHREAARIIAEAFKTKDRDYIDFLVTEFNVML

Binder | pKd
B1 | below the threshold
B2 | below the threshold
B3 | below the threshold
B4 | below the threshold
B5 | 4.02

molecular target: NHERF2_2, Q15599; assay: holdup assay; design: key: below the threshold = too weak to quantify, mostly under pKd 3.1 to 4; conditions: plain residues with an end cap or a label only (N-terminal biotin on a linker: ado-ado)
Sequence (Q15599 142-238): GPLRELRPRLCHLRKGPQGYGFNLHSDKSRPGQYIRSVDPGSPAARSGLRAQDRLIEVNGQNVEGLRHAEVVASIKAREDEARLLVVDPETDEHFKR

Binder | pKd
B1 | below the threshold
B2 | 4.44
B3 | 3.91
B4 | below the threshold
B5 | 3.64

molecular target: T11, MPP6, Q9NZW5; assay: holdup assay; design: key: below the threshold = too weak to quantify, mostly under pKd 3.1 to 4; conditions: plain residues with an end cap or a label only (N-terminal biotin on a linker: ado-ado)
T11 sequence (Q9NZW5 125-219, limits assumed, looked up): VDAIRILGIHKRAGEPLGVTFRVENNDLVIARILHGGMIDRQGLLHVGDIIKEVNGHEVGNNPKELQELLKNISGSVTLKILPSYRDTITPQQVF

Binder | pKd
B1 | below the threshold
B2 | below the threshold
B3 | 3.49
B4 | below the threshold
B5 | below the threshold

molecular target: DLG2_3, Q15700; assay: holdup assay; design: key: below the threshold = too weak to quantify, mostly under pKd 3.1 to 4; conditions: plain residues with an end cap or a label only (N-terminal biotin on a linker: ado-ado)

Binder | pKd
B1 | 3.84
B2 | below the threshold
B3 | below the threshold
B4 | below the threshold
B5 | below the threshold

molecular target: FRMPD2_2, Q68DX3; assay: holdup assay; design: key: below the threshold = too weak to quantify, mostly under pKd 3.1 to 4; conditions: plain residues with an end cap or a label only (N-terminal biotin on a linker: ado-ado)
Sequence (Q68DX3 944-1038): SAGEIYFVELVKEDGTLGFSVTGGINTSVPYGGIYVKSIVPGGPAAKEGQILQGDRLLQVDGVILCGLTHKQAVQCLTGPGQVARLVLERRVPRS

Binder | pKd
B1 | below the threshold
B2 | below the threshold
B3 | below the threshold
B4 | below the threshold
B5 | below the threshold

molecular target: T12, PCLO, Q9Y6V0; assay: holdup assay; design: key: below the threshold = too weak to quantify, mostly under pKd 3.1 to 4; conditions: plain residues with an end cap or a label only (N-terminal biotin on a linker: ado-ado)
T12 sequence (Q9Y6V0 4491-4600, limits assumed, looked up): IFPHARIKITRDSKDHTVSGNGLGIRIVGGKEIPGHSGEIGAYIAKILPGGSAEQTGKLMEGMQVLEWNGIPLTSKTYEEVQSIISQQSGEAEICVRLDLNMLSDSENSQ

Binder | pKd
B1 | below the threshold
B2 | below the threshold
B3 | below the threshold
B4 | below the threshold
B5 | below the threshold

molecular target: GRID2IP_2, A4D2P6; assay: holdup assay; design: key: below the threshold = too weak to quantify, mostly under pKd 3.1 to 4; conditions: plain residues with an end cap or a label only (N-terminal biotin on a linker: ado-ado)
Sequence (A4D2P6 272-370): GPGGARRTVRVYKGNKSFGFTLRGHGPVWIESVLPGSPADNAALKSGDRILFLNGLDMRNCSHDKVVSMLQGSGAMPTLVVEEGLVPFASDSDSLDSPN

Binder | pKd
B1 | below the threshold
B2 | 4.37
B3 | below the threshold
B4 | below the threshold
B5 | below the threshold

molecular target: MAST1, Q9Y2H9; assay: holdup assay; design: key: below the threshold = too weak to quantify, mostly under pKd 3.1 to 4; conditions: plain residues with an end cap or a label only (N-terminal biotin on a linker: ado-ado)
Sequence (Q9Y2H9 962-1065): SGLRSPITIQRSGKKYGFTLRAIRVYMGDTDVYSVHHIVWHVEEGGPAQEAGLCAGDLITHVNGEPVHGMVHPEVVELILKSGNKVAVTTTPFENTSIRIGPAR

Binder | pKd
B1 | 3.86
B2 | 4.65
B3 | 3.63
B4 | 3.65
B5 | 3.95

Source: paper PMC9482650, “Quantitative fragmentomics allow affinity mapping of interactomes” (Nature Communications, 2022)
